According to IntAct's records for PubMed 21957239:

B1: Sodium-dependent dopamine transporter (Homo sapiens), Q01959 (parent)
chain: MSKSKCSVGLMSSVVAPAKEPNAVGPKEVELILVKEQNGVQLTSSTLTNPRQSPVEAQDRETWGKKIDFLLSVIGFAVDLANVWRFPYLCYKNGGGAFLVPYLLFMVIAGMPLFYMELALGQFNREGAAGVWKICPILKGVGFTVILISLYVGFFYNVIIAWALHYLFSSFTTELPWIHCNNSWNSPNCSDAHPGDSSGDSSGLNDTFGTTPAAEYFERGVLHLHQSHGIDDLGPPRWQLTACLVLVIVLLYFSLWKGVKTSGKVVWITATMPYVVLTALLLRGVTLPGAIDGIRAYLSVDFYRLCEASVWIDAATQVCFSLGVGFGVLIAFSSYNKFTNNCYRDAIVTTSINSLTSFSSGFVVFSFLGYMAQKHSVPIGDVAKDGPGLIFIIYPEAIATLPLSSAWAVVFFIMLLTLGIDSAMGGMESVITGLIDEFQLLHRHRELFTLFIVLATFLLSLFCVTNGGIYVFTLLDHFAAGTSILFGVLIEAIGVAWFYGVGQFSDDIQQMTGQRPSLYWRLCWKLVSPCFLLFVVVVSIVTFRPPHYGAYIFPDWANALGWVIATSSMAMVPIYAAYKFCSLPGSFREKLAYAIAPEKDRELVDRGEVRQFTLRHWLKV
partner: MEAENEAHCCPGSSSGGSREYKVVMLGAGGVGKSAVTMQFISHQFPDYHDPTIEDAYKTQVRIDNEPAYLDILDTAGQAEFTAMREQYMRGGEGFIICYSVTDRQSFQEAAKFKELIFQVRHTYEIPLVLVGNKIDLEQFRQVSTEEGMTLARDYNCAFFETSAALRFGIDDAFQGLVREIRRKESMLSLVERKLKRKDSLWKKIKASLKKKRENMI

Variants of: B1
Conditions: with rit2_rat Rit2, Q5BJQ5

effect of a mutation on the interaction | Variant
increasing interaction strength | F587A;R588A;E589A;K590A
